The source of these data is patent US20030119023.

What all share (assay): EMSA
For series [1], the target named is ZIF-F4-GAC (TFIIIA finger 4 linker) (artificial) (UniProt P08046). The settings on record: apparent Kd.
For series [2], the target named is ZIF-flex-GAC (linker TG(GSG)5ERP) (artificial) (UniProt P08046). The following applies: all sites approximately 50 pM.
For series [3], the system named is ZIF-ZnF-GAC (serine-finger linker) (artificial). The following applies: apparent Kd.
For series [4], the target named is ZIF-F4mut-GAC (ZIF-mutF4-GAC; TFIIIA finger 4 flanked by GERP linkers) (artificial) (UniProt P08046). The settings on record: apparent Kd.
The target in series [5] is ZIF-mutZnF-GAC (serine finger flanked by NIKICV and TQQLP) (artificial) (UniProt P08046).
The test system of series [6] is 2x3F ZIF-GAC (artificial). The following applies: apparent Kd; half-site.
In another series the test system is 3x2F ZGS (artificial). The settings on record: apparent Kd; half-site; hard to quantify.
3x2F ZGS (artificial), sequence (chain, as listed by the source): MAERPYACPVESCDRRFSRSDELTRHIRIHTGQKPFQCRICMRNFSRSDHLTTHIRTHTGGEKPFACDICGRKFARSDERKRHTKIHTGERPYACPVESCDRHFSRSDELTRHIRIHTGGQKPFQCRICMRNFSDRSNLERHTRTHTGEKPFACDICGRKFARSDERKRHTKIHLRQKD
Series [7] deals with TF(1-3)-flex-ZIF (linker TG(GSG)5ERP) (artificial) (UniProt P03001+P08046). The following applies: apparent Kd.
Series [8] has as its system TF(1-4)-ZIF (TFIIIA F1-4 fused to Zif268) (artificial). The settings on record: apparent Kd; half-site.

As for “GCGGACGCGGCGTGGGCG (double strand) [bsC (123456, ZM)]”, the Kd in [1] worked out at 0.011 nM; in series [2], 0.05 nM.

For “GCGGACGCGNGCGTGGGCG (double strand) [Z1M]”, the Kd came to 0.006 nM in series [1], 0.004 nM in series [3] and 0.05 nM in series [2].

Turning to “GCGGACGCGNNGCGTGGGCG (double strand) [Z2M]”, the Kd was found to be 0.007 nM in [1], 0.006 nM in series [3] and 0.05 nM in [2].

Take “GCGGACGCGNNNGCGTGGGCG (double strand) [Z3M]”: the Kd in series [1] worked out at 0.005 nM; in series [3], 0.004 nM; in series [2] it was 0.05 nM.

Turning to “GCGGACGCGNNNNGCGTGGGCG (double strand) [Z4M]”, the results for the Kd in series [1], in [3] and in [2] were 0.013 nM, 0.003 nM and 0.05 nM, respectively.

With “GCGGACGCGNNNNNGCGTGGGCG (double strand) [Z5M]”, the Kd in series [1] is 0.016 nM; in [4], 0.013 nM; in series [3] it was 0.008 nM; in [2], 0.05 nM; in series [5], 0.018 nM.

Turning to “GCGGACGCGNNNNNNGCGTGGGCG (double strand) [Z6M]”, the Kd in series [1] is 0.017 nM; in [4] it was 0.013 nM; in series [3], 0.007 nM; in [2], 0.05 nM; in series [5] it was 0.011 nM.

In the case of “GCGGACGCGNNNNNNNGCGTGGGCG (double strand) [Z7M]”, the Kd in series [1] stood at 0.005 nM; in series [3], 0.003 nM; in [2] it was 0.05 nM.

Turning to “GCGGACGCGNNNNNNNNGCGTGGGCG (double strand) [Z8M]”, the results for the Kd in series [1], in series [3] and in series [2] were 0.005 nM, 0.006 nM and 0.05 nM, respectively.

On to “GCGGACGCGNNNNNNNNNGCGTGGGCG (double strand) [Z9M]”, for which the Kd in [1] worked out at 0.005 nM; in series [3], 0.004 nM; in series [2], 0.05 nM.

Regarding “GCGGACGCGNNNNNNNNNNGCGTGGGCG (double strand) [Z10M]”, the Kd in [1] is 0.004 nM; in series [3], 0.003 nM; in series [2] it was 0.05 nM.

Take “GCGTGGGCG (double strand) [bsA (ZIF site)]”: the Kd in [6] stood at 2.2 nM; with 3x2F ZGS (artificial), 110 nM; in [7] (half-site), 1.8 nM; in [8], 2 nM; in series [1] (half-site) it was 2.2 nM; in [3] (half-site) it was 2 nM.

In the case of “GCGTGGGCGAGTACCTGGATGGGAGAC (double strand) [TF7Z (bsC1)]”, the Kd in [7] turned out to be 0.057 nM.

On to “GCGTGGGCGGTACCTGGATGGGAGAC (double strand) [TF6Z (bsB1)]”, for which the Kd in [7] turned out to be 0.068 nM.

“GCGTGGGCGTACCTGGATGGGAGAC (double strand) [TF5Z (bsA1)]”: in [7], the Kd is 0.063 nM.

With “GCGTGGGCGTAGTACCTGGATGGGAGAC (double strand) [TF8Z (bsD1)]”, the Kd in series [7] was found to be 0.061 nM.

As to “GCGTGGGCGTTAGTACCTGGATGGGAGAC (double strand) [TF9Z (bsE1)]”, the Kd in series [7] stood at 0.058 nM.
